Measured values: patent publication US20170283834A1, “Processes for Producing A Fermentation Product Using A Fermenting Organism” (Novozymes A/S, priority 2014, published 2017)
Substitutions are numbered along the chain they refer to. Names may count otherwise.

B1: JTP054: protease variant of SEQ ID NO: 3: ΔS5/D79L/S87P (protein, listed as Thermoascus aurantiacus)
chain: MRLVASLTALVALSVPVFPAAVNVKRASSYLEITLSQVSNTLIKAVVQNTGSDELSFVHLNFFKDPAPVKKVSVYRDGSEVQFEGILSRYKSTGLSRDAFTYLAPGESVEDVFDIASTYDLTSGGPVTIRTEGVVPYATANSTDIAGYISYSSNVLTIDVDGAAAATVSKAITPLDRRTRISCSGSRQSALTTALRNAASLANAAADAAQSGSASKFSEYFKTTSSSTRQTVAARLRAVAREASSSSSGATTYYCLDPYGYCSPNVLAYTLPSYNIIANCDIFYTYLPALTSTCHAQDQATTALHEFTHAPGVYSPGTDDLAYGYQAAMGLSSSQAVMNADTYALYANAIYLGC
B2: JTP040: protease variant of SEQ ID NO: 3: T54R/D79L/S87P (protein, listed as Thermoascus aurantiacus)
chain: MRLVASLTALVALSVPVFPAAVNVKRASSYLEITLSQVSNTLIKAVVQNTGSDELSFVHLNFFKDPAPVKKVSVYRDGSEVQFEGILSRYKSTGLSRDAFTYLAPGESVEDVFDIASTYDLTSGGPVTIRTEGVVPYATANSTDIAGYISYSSNVLTIDVDGAAAATVSKAITPLDRRTRISSCSGSRQSALTTALRNAASLANAAADAAQSGSASKFSEYFKTTSSSTRQRVAARLRAVAREASSSSSGATTYYCLDPYGYCSPNVLAYTLPSYNIIANCDIFYTYLPALTSTCHAQDQATTALHEFTHAPGVYSPGTDDLAYGYQAAMGLSSSQAVMNADTYALYANAIYLGC
B3: JTP048: protease variant of SEQ ID NO: 3: D79L/S87P/D104R (protein, listed as Thermoascus aurantiacus)
chain: B2 chain with R232T, D282R
B4: JTP043: protease variant of SEQ ID NO: 3: Q53R/D79L/S87P (protein, listed as Thermoascus aurantiacus)
chain: B2 chain with Q231R, R232T
B5: JTP052: protease variant of SEQ ID NO: 3: D79L/S87P/A112P/D142L/S157K (protein, listed as Thermoascus aurantiacus)
chain: B2 chain with R232T, A290P, D320L, S335K
B6: JTP051: protease variant of SEQ ID NO: 3: S41R/D79L/S87P/A112P/D142L (protein, listed as Thermoascus aurantiacus)
chain: B2 chain with S219R, R232T, A290P, D320L
B7: JTP053: protease variant of SEQ ID NO: 3: S41R/D79L/S87P/A112P/D142L/S157K (protein, listed as Thermoascus aurantiacus)
chain: B2 chain with S219R, R232T, A290P, D320L, S335K
B8: JTP047: protease variant of SEQ ID NO: 3: D79L/S87P/S157K (protein, listed as Thermoascus aurantiacus)
chain: B2 chain with R232T, S335K
B9: JTP046: protease variant of SEQ ID NO: 3: D79L/S87P/Q158W (protein, listed as Thermoascus aurantiacus)
chain: B2 chain with R232T, Q336W
B10: JTP042: protease variant of SEQ ID NO: 3: Q53K/D79L/S87P/I173V (protein, listed as Thermoascus aurantiacus)
chain: B2 chain with Q231K, R232T, I351V
B11: JTP045: protease variant of SEQ ID NO: 3: S41R/D79L/S87P (protein, listed as Thermoascus aurantiacus)
chain: B2 chain with S219R, R232T

Tested on: zein
Experiment: Relative activity assay of protease variants (zein micro titer plate)
Type: biochemical
Conditions: Table 3
Procedure: Each well contains 200 microL of 0.05-0.1% of zein (Sigma), 0.25 mM ZnSO4 and 1% of agar in 20 mM sodium acetate buffer, pH 4.5.
Yeast clones on SC-glucose were inoculated to a well of a 96-well micro titre plate containing YPD+Zn medium and cultivated at 28° C. for 3 days. The culture supernatants were applied to a 96-well zein micro titer plate and incubated at at least 2 temperatures (ex. 60° C. and 65° C., 70° C. and 75° C., 70° C. and 80° C.) for more than 4 hours or overnight. The turbidity of zein in the plate was measured as A630 and the relative activity (higher/lower temperatures) was determined as an indicator of thermoactivity improvement. The clones with higher relative activity than the parental variant were selected and the sequence was determined.

| Molecule | Relative activity 75° C./70° C. [%] | Relative activity 75° C./65° C. [%] |
| --- | --- | --- |
| B1 | 92 |  |
| B2 |  | 71 |
| B3 |  | 88 |
| B4 |  | 80 |
| B5 | 111 |  |
| B6 | 102 |  |
| B7 | 113 |  |
| B8 |  | 85 |
| B9 |  | 96 |
| B10 |  | 108 |
| B11 |  | 82 |
